Measured values from patent US6316596A, “Receptor for peptide hormones involving in energy homeostasis” (The Rockefeller University, priority 1998, dated 2001).
pIC50: −log10 of the molar value. Entries after “also recorded” stand apart in the source; their conditions may differ.

Legend:
[1] = tested on: CHL cells transfected with the vector alone; experiment: binding of 125I-VIP to CHL cells transfected with vector alone; design: species or system Chinese hamster; conditions: data not shown
Procedure: Stable transformants were selected in the presence of G418 (0.8 mg/ml, GIBCO/BRL, Gaithersburg, Md.). […] Each peptide concentration prepared in Hfank's balanced salt solution containing 20 mM HEPES, pH 7.4, 0.5% BSA and 0.1 mM phenylmethylsulfonyl-fluoride (PMSF) was added in triplicates to intact cells. Following the incubation, the cells were washed two times with ice-cold PBS, lysed with 1 N NaOH, and radioactivity measured in gamma counter. […] The maximum specific binding was 5%. The variation among triplicate values was 10%.

[2] = target: T1, recombinant human PACAP/VIP R-2 receptor (Homo sapiens, UniProt P41587); experiment: competitive binding with 125I-VIP, CHL cells expressing recombinant receptor
T1 construct: expressed in transfected cells
T1 sequence (P41587 24-438 R412H/G424A): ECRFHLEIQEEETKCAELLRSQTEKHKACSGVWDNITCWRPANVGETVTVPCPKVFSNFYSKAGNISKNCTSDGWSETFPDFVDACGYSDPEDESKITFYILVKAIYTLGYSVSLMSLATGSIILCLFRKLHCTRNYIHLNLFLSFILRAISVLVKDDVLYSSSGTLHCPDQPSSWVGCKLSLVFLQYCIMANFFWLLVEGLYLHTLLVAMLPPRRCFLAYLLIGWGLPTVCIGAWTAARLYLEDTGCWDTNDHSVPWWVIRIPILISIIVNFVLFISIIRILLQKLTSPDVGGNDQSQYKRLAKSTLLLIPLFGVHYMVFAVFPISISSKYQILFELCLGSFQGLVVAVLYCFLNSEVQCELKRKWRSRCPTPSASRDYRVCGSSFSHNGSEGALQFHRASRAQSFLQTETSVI
Procedure: Data points represent an average of two separate experiments (n=6). The variation among individual points was 10% (see Materials and Methods).
Each peptide concentration prepared in Hfank's balanced salt solution containing 20 mM HEPES, pH 7.4, 0.5% BSA and 0.1 mM phenylmethylsulfonyl-fluoride (PMSF) was added in triplicates to intact cells. Following the incubation, the cells were washed two times with ice-cold PBS, lysed with 1 N NaOH, and radioactivity measured in gamma counter. […] The variation among triplicate values was 10%.

[3] = target: T1, recombinant human PACAP/VIP R-2 receptor; experiment: stimulation of intracellular cAMP in cells expressing recombinant receptor; assay type: cell-based; conditions: FIG. 2B; for stimulation of intracellular cAMP formation (in words) / peptide concentration at maximum stimulation of cAMP levels: CHL cells; for stimulation of intracellular cAMP formation (in words): 45 minutes at 37° C., secretin, glucagon, GLP-I and GLP-II at μM concentrations
Description: Data points represent an average of two separate determinations (n=6), except for secretin (n=3) (see Materials and Methods). The variation among individual points was 5%.

[4] = tested on: CHL cells transfected with vector alone; experiment: intracellular cAMP in CHL cells transfected with vector alone; assay type: cell-based, Chinese hamster; conditions: 1.1 μM; data not shown
Procedure: Cells were grown in 24-well plates to about 50% confluence. They were washed twice with the incubation buffer (Macy's 5A pH 7.4, containing 20 mM HEPES, 0.5% BSA and 0.5 mM IBMX) and incubated with different concentration of synthetic peptides added in triplicates (μM-pM) for 45 minutes at 37° C. In each experiment forskolin (10 μM, Sigma, St. Louis, Mo.) was added as a positive control. After removal of the medium, cells were washed twice with PBS and lysed with 95% ethanol. The suspension was centrifuged at 13,000 rpm for 3 minutes, and supernatants were taken to dryness in a speed vacuum. The contents were reconstituted in 0.05 M acetate buffer (0.5 ml) and cAMP levels measured using the cAMP Biotrak SPA system (Amersham, Arlington Heights, Ill.). The variation among triplicate values was 5%. The data shown in FIG. 2B are average of two separate incubations (n=6), except for secretin (n=3).

insulin secretion = conditions: Yada et al., 1994; cited from earlier work
[5] = 125I-VIP 44 pM, whole CHL cells

Row | Substance | displacement of 125I-VIP binding (in words) [2, 5] | stimulation of intracellular cAMP formation (in words) [3] | also measured
1 | 125I-VIP: radioiodinated VIP (2000 Ci/mmol, Amersham) |  |  | binding of 125I-VIP to vector-transfected cells [1]: did not bind
2 | PACAP-27 | complete displacement of ^125 I-VIP binding to the recombinant PACAP/VIP R-2 was not obtainable at high PACAP-27 concentration | stimulated intracellular cAMP formation in a dose dependent manner | pIC50 ([2]; read-out: ID50, displacement of 125I-VIP binding, 125I-VIP 44 pM, whole CHL cells, 15-18 hour at 4° C., VIP and PACAP-27 values estimated (incomplete displacement)): 7.43; peptide concentration at maximum stimulation of cAMP levels [3]: 100 nM
3 | PACAP-38: 38-amino acid form of pituitary adenylate cyclase activating polypeptide; synthetic, purchased from Peninsula | displaced in a dose dependent manner | stimulated intracellular cAMP formation in a dose dependent manner | relative affinity for the receptor (in words) ([2]; competitive binding, whole cells): higher affinity than PACAP-27; also recorded: slightly higher affinity for PACAP-38 than for VIP; cAMP response at supraphysiological concentration ([3]; 1 μM PACAP-38): sharp drop to baseline levels; peptide concentration at maximum stimulation of cAMP levels [3]: 100 nM; change of intracellular cAMP in vector-transfected cells [4]: No change of intracellular cAMP was detected; stimulation of insulin secretion (insulin secretion): ability to stimulate insulin secretion
4 | glucagon-like peptide-I [GLP-I] | did not displace this binding | did not show any stimulation | 
5 | glucagon-like peptide-II [GLP-II] | did not displace this binding | did not show any stimulation | 
6 | glucagon: glucagon | did not displace this binding | did not show any stimulation | 
7 | secretin: synthetic secretin purchased from Peninsula; high sequence homology to PACAP and VIP |  | Some increase of intracellular cAMP levels | high concentration at which 125I-VIP binding was displaced ([2]; 125I-VIP, FIG. 2A): 3.8 µM
